According to patent publication US20230391879A1 (INTERVET, published 2023):
Residue numbers refer to the chain shown, from its start.

T1: Canine IL-31RA ECD-10His (canine)
T1 construct: made in HEK-293 or CHO cells and coated on the ELISA plates; also called canine IL-31 receptor alpha extracellular domain HIS-tagged protein; cIL-31RA
T1 chain: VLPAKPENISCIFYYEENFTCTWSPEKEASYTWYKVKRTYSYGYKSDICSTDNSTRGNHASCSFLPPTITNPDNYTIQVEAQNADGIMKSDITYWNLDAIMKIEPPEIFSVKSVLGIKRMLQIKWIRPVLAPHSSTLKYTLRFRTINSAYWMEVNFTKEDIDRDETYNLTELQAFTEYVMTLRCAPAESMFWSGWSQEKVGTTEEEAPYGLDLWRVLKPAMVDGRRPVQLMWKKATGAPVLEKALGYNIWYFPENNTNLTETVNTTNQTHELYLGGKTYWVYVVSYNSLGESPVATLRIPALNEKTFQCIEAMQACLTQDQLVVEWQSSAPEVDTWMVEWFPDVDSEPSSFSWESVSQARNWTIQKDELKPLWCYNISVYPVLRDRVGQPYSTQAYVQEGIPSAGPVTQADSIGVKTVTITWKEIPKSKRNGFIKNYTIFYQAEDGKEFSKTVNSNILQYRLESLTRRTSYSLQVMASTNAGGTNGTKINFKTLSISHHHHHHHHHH

B1: caninized 10A12VH1VL5 (antibody, V domains shown)
VH: EVQLVESGGDLVKPGGSLRLSCVASGFTFSNYYMAWVRQAPGKGLQWVASISTGGGNTYYRDSVKGRFTISRDNAKNTLYLQMNSLRAEDTAMYYCAKHGTLYFDYWGQGTLVTVSS
VL: QPVLTQPPSLSASLGTTARLTCERSSGDIGDSYVSWYQQKPGSPPRDLLYVDDQRPSGVSKSFSGSKDTSANAGLLLISGLQPEDEADYYCQSYDSNIDGPVFGGGTHLTVLG
notes: Caninized antibody, canine IgG-Bm heavy chain and canine lambda light chain; also called c10A12VH1-cIgGBm + c10A12VL5-cCL
B2: caninized 10A12VH2VL6 (antibody, V domains shown)
VH: B1 VH with V23A, K98R
VL: B1 VL with L48V, L49I, G58E, Y90F
notes: Caninized antibody, canine IgG-Bm heavy chain and canine lambda light chain; also called c10A12; c10A12VH2-cIgGBm + c10A12VL6-cCL
B3: caninized 10A12VH1VL6 (antibody, V domains shown)
VH: B1 VH
VL: B1 VL with L48V, L49I, G58E, Y90F
notes: Caninized antibody, canine IgG-Bm heavy chain and canine lambda light chain; also called c10A12VH1-cIgGBm + c10A12VL6-cCL
B4: caninized 10A12VH2VL5 (antibody, V domains shown)
VH: B1 VH with V23A, K98R
VL: B1 VL
notes: Caninized antibody, canine IgG-Bm heavy chain and canine lambda light chain; also called c10A12VH2-cIgGBm + c10A12VL5-cCL
B5: caninized 44E2VH2VK2 (antibody, V domains shown)
VH: EVQLVESGGDLVKPEGSLRLSCVVSGFSLTSNGVSWVRQAPGKGLQWIAAISSGGSTYYNSVLKSRLTISRDNAKNTLYLQMNSLRTEDTAVYYCARRLSGYNYVPFAYWGQGTLVTVSS
VL: EIVMTQSPASLSLSQEEKVTITCKASQNIYKHLAWYQQKPGQAPKLLIYNANSLQTGIPSRFSGSGSGTDFSFTISSLEPEDVAVYFCQQYYSGDTFGAGTKVELKR
notes: Caninized antibody, canine IgG-Bm heavy chain and canine kappa light chain; also called c44E2; c44E2VH2-cIgGBm + c44E2VK2-cCK
B6: caninized 44E2VH5VK1 (antibody, V domains shown)
VH: ELTLQESGPGLVKPSQTLSLTCTVSGFSLTSNGVSWIRQRPGRGLEWMGAISSGGSTYYNSVLKSRISITADTAKNQFSLQLSSMTTEDTAVYYCARRLSGYNYVPFAYWGQGTLVTVSS
VL: B5 VL with I58V, F87Y
notes: Caninized antibody, canine IgG-Bm heavy chain and canine kappa light chain; also called c44E2VH5-cIgGBm + c44E2VK1-cCK
B7: caninized 44E2VH5VK2 (antibody, V domains shown)
VH: B6 VH
VL: B5 VL
notes: Caninized antibody, canine IgG-Bm heavy chain and canine kappa light chain; also called c44E2; c44E2VH5-cIgGBm + c44E2VK2-cCK
B8: caninized 44E2VH4VK1 (antibody, V domains shown)
VH: B6 VH with T23V, F27G, L29V
VL: B5 VL with I58V, F87Y
notes: Caninized antibody, canine IgG-Bm heavy chain and canine kappa light chain; also called c44E2VH4-cIgGBm + c44E2VK1-cCK

Biological target: T1, Canine IL-31RA ECD-10His
Test: ELISA (FIG. 6A)

Binding result, binds:
B1, B2, B3, B4

Biological target: T1, Canine IL-31RA ECD-10His
Test: ELISA (FIG. 6C)

Binding result, binds:
B5, B6, B7, B8
